Results reported in the supplement of paper PMC9170038.

Key:
MS2 coat protein [1] = assay: apparent KD of MS2 coat protein; designed switch direction (-1 OFF switch, 1 ON switch): 1; higher = weaker reporter binding
Outline: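 The buffer was Tris-HCl pH 7.5 with KCl, MgCl2, BSA, DTT, tRNA and Tween-20. In it, SNAP-549-labelled MS2 coat protein was titrated in doubling steps from 0.7 or 1.5 nM to 3 µM over chip-bound RNA switches transcribed by stalled E. coli RNA polymerase on Illumina chips. Apparent KD is the per-design median over clusters of curve fits to normalised fluorescence.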

MS2 coat protein [2] = assay: apparent KD of MS2 coat protein; higher = weaker reporter binding; conditions: Eterna round: R107
Outline: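 Titration buffer: 100 mM Tris-HCl pH 7.5, 80 mM KCl, 4 mM MgCl2, without or with constant ligand. Designed RNA switches transcribed on-chip from Illumina sequencing clusters received SNAP-549-labelled MS2 coat protein in twofold steps from 0.7 or 1.5 nM to 3 µM. Apparent KD is the median per design of fits to normalised cluster binding curves.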

[3] = input ligand: microRNA oligo, concentration not stated
[4] = input ligand: theophylline 20 uM
[5] = input ligand: theophylline 2 mM
[6] = input ligand: tryptophan 2.4 mM

Sequence | apparent KD of MS2 coat protein (MS2 coat protein [1]; Eterna round: R95, input ligand: FMN 200 uM) [nM] | apparent KD of MS2 coat protein (MS2 coat protein [1]; Eterna round: R95, input ligand: microRNA oligo, concentration not stated) [nM] | apparent KD of MS2 coat protein (MS2 coat protein [1]; Eterna round: R95, input ligand: none) [nM] | apparent KD of MS2 coat protein (MS2 coat protein [1]; input ligand: FMN 200 uM) [nM] | apparent KD of MS2 coat protein (MS2 coat protein [1]; [3]) [nM] | apparent KD of MS2 coat protein (MS2 coat protein [1]; input ligand: none) [nM] | apparent KD of MS2 coat protein (MS2 coat protein [2]; input ligand: arginine 13.2 mM) [nM] | apparent KD of MS2 coat protein (MS2 coat protein [2]; [4]) [nM] | apparent KD of MS2 coat protein (MS2 coat protein [2]; [5]) [nM] | apparent KD of MS2 coat protein (MS2 coat protein [2]; input ligand: none) [nM] | apparent KD of MS2 coat protein (MS2 coat protein [2]; [6]) [nM]
CGUCCGGCCUGUGCUGGCCGGAAGCAUGUACAUGAGGAUCACCCAUGUUCUUGUGCAGGCUUUUUGCUCGUCUUGUG [salish99_mir208a_010] (puzzle: Sensor for hsa-mir-208a) | 24.9 | 14.7 | 22.2 |  |  |  |  |  |  |  | 
UGAGGUGUAGCAGGAUAUGCCGUCAGUCACCCGGCAGAAGGGCUGAAAGCAUGCUCGCACAUGAGGAUCACCCAUGUCACAGUG [Eternabot solution 17] (Eterna round: R96, puzzle: Same State NG 1) |  |  |  | 48.9 | 37.7 | 44 |  |  |  |  | 
AGCUAUUAAUCAGGAUAUAGGGACAUGAGGAUCACCCAUGUAUACAUGAUGAAAUGUGGUCACCUCUAGAAGGGAUUACUAACA [SameState NG2 #42] (Eterna round: R96, puzzle: Same State NG 2) |  |  |  | 155 | 109 | 178 |  |  |  |  | 
UUACACAUGAGGAUCACCCAUGUCUGGGAGCGAGGACCGGUACGGCCGCCACUCGAAUUGUCAGGGCUAUGCCGGACGAUGCAUC [theeternabot_sameState_MS2_Trp_A_20] |  |  |  |  |  |  | 20.6 | 23.5 | 25 |  | 
GCUAGGUCAUCGGCCGCCACUAACGAAGGUUCGAACAUGAGGAUCACCCAUGUGCCACAUGCGCAUAGGACCGGGAUGACCUAGC [SSTB NP+V+V2 #7 +-Same Structure] |  |  |  |  |  |  | 13.8 | 26.2 | 20.8 | 17.3 | 11.4
UCGCUCUGGGUGAGAUCCGGAGAUGUGGAAGGAGCGCUGGAAACAGCAGGUAGGUCGCCAACGGACAUGAGGAUCACCCAUGUAC [Same State - Arginine A (Freestyle 19)] |  |  |  |  |  |  | 41.4 | 75.3 | 31.9 | 44.4 | 81.5
UUGGGUUUGCGAAGGAGCGGGUAUGUUUUCUAGUGGAUCCUAACAUGAGGAUCACCCAUGUCCCAGGUAGGUCGCGCGGGUUUGG [12.V] |  |  |  |  |  |  | 89.1 | 230 | 224 | 122 | 148
AAUAACGUGAGGAUCACCCACGUAAAAGAUACCAGAGUGAUGAUCCUCCCUUGGCAGCUUAACGCUGAUUGAUUACAAUCAGCGA |  |  |  |  |  |  | 49.5 | 123 | 213 | 58.7 | 49.6
GGUCGCCAACAUGGGUGGGUGACCCUGGAAGGAGCGAGCGAGAGCUCAGGUAGGUCGCCAGAACAUGAGGAUCACCCAUGUAAUA [(A)''-(M)'-(A)'(Arg1)-(Arg2)-(M1)-(M2)_Design14] |  |  |  |  |  |  | 38.3 | 90 | 139 | 63.5 | 65.8
CAUCCACCUGAAGCCUCCCAAUUCCUCGAUACCAGAGGAUUAAGACUCCCUUGGCAGCGAGCUACAUGAGGAUCACCCAUGUGCC [theeternabot_exclusion_MS2_Theo_A_32] |  |  |  |  |  |  | 17.8 | 24.1 |  |  | 18.2
GACGAUAUGAUACGUCAGCAAUCCUCGAAACGAGGACCGGUACGGCCGCCACUCGAGUGAUACACAUGAGGAUCACCCAUGUACC [Tryp A Ex t3] |  |  |  |  |  |  | 30.9 | 49.6 | 49.4 |  | 
ACCUGCGUUUGUUUCUUUCUGACGCAGGUUCGAGGACCGGUACGGCCGCCACUCGGACAUGAGGAUCACCCAUGUUUGACAUGGG [#02 Exclusion Tryptophan A] |  |  |  |  |  |  | 229 | 238 | 281 |  | 
ACGGAUCGGAAACGAUCCGCGGCAAGGGUACGAGGACCGGUACGGCCGCCACUCGGCUAACAUGAGGAUCACCCAUGUCCGAAGA [ETA NP+V+V2 #8] |  |  |  |  |  |  | 41.9 | 59.7 | 72.2 | 60.7 | 72.2
UCGGGCAGAGCGGCCGCCACUGUUUGGCAUGCGGAUGAAGGAACAUGAGGAUCACCCAUGUAGAUUAGGACCGGGCUUGCGGAGA [rvcmullin] |  |  |  |  |  |  | 19.1 | 22.1 | 23.8 | 18.2 | 19.5
ACGCCCAGGUAGGCUUAGUGGGAAAUGGAAGGAGCGCUGAUGCAAGCAGGUAGGUCGCCAACGAACAUGAGGAUCACCCAUGUAA [Same State - Arginine A (Freestyle 1)] |  |  |  |  |  |  | 14 | 29.8 | 20.7 | 17.9 | 16.4
UGUACCAUGUCGGCCGCCACUCAUGAUAAACAAGAGGAUCACCCUUGUAGCGUCAAAGACGCUAUGAGGACCGGGACAUGGUACU [TryBS Zipper 2] |  |  |  |  |  |  | 29.5 | 41.2 | 43.9 | 29.7 | 15.5
GGCACAUAGUCGGCCGCCACUAGAAUAAGAUGGAAUAACAUGAGGAUCACCCAUGUAAAAGGGACUAGGACCGGGACUAUGUGCC [Goat] |  |  |  |  |  |  | 12.9 | 15.7 | 14.3 |  | 
GCAUCCUAGUCGGCCGCCACUGCAACAUGAGGAUCACCCAUGUCUGUAUGUGAUCCAUGCAGUAGCAGGACCGGGACUAGGAUGC [(T1)-(M1)-(M2)-(T)''-(M)'-(T)'-(T2)_Design3_2/18/17] |  |  |  |  |  |  | 237 | 467 | 833 |  | 

Sequence | apparent KD of MS2 coat protein (MS2 coat protein [1]; Eterna round: R95, input ligand: FMN 200 uM) [nM] | apparent KD of MS2 coat protein (MS2 coat protein [1]; Eterna round: R95, input ligand: microRNA oligo, concentration not stated) [nM] | apparent KD of MS2 coat protein (MS2 coat protein [1]; Eterna round: R95, input ligand: none) [nM] | apparent KD of MS2 coat protein (MS2 coat protein [1]; input ligand: FMN 200 uM) [nM] | apparent KD of MS2 coat protein (MS2 coat protein [1]; [3]) [nM] | apparent KD of MS2 coat protein (MS2 coat protein [1]; input ligand: none) [nM] | apparent KD of MS2 coat protein (MS2 coat protein [2]; input ligand: arginine 13.2 mM) [nM] | apparent KD of MS2 coat protein (MS2 coat protein [2]; [4]) [nM] | apparent KD of MS2 coat protein (MS2 coat protein [2]; [5]) [nM] | apparent KD of MS2 coat protein (MS2 coat protein [2]; input ligand: none) [nM] | apparent KD of MS2 coat protein (MS2 coat protein [2]; [6]) [nM]
AUACCACCUUCGGCCGCCACUAUGUAUGGGUUCCCAACGUUGAAGGACAUGAGGAUCACCCAUGUUAGGACCGGGAAAAGUGCCU [theeternabot_exclusion_MS2_Trp_B_17] |  |  |  |  |  |  | 45.3 | 106 | 103 |  | 
GGAGCUACGUCGGCCGCCACUAGCGGUUAUUACGUGUACAUGAGGAUCACCCAUGUAAUAUGGCUUAGGACCGGGACGUAGCUCC [Wolverine] |  |  |  |  |  |  | 21 | 29 | 27.8 |  | 
GGGCCCGGGCGCGAGCCCGGGCCCAUUGAUACCAGUGAAGAAGAGCGCCCUUGGCAGCGAAUCCUAACAUGAGGAUCACCCAUGU [5.P] |  |  |  |  |  |  | 63.2 | 74.3 | 77.3 | 43.6 | 38.8
ACGCGCUGGGCGGCCGCCACUCACCUGCCGUGGACAUUUCGAGGUCACAUGAGGAUCACCCAUGUGAGGACCGGGCCCUGUAGGC [theeternabot_exclusion_MS2_Trp_B_37] |  |  |  |  |  |  | 12.3 | 17 | 12.7 |  | 
CUAUUUAUAGCGGCCGCCACUUACUCAUGAGGUAACAACAUGAGGAUCACCCAUGUUUGAGGAUCAAGGACCGGGCUAUAGAUAG [AstrosSSTryB#11] |  |  |  |  |  |  | 36.7 | 20.3 | 24.3 | 27.5 | 15
GCACCAGGUACGGAUACCAGACGUUGCCAAUUGGGUGCACAUGAGGAUCACCCAUGUUCUGUCCCUUGGCAGCCGUACCUGGUGC [EThB NP+V+V2 #5] |  |  |  |  |  |  | 10.2 | 13.5 | 73.2 | 10.1 | 9.12
CAUGCCAGGGCGGCCGCCACUGUGGCUACGGUACAUGAGGAUCACCCAUGUUUGUGGUUGAUCUACAGGACCGGGCCCUAGCACG [Anananenes] |  |  |  |  |  |  | 30.6 | 597 | 528 |  | 
UUUGUAAUUGUCUGGUAGAUUUAUUUAUUUCGAGGACCGGUACGGCCGCCACUCGUUAAUUACAUGAGGAUCACCCAUGUUAGCU [JR_ExcTryptoA_Sub008] |  |  |  |  |  |  | 14.1 | 17.1 | 15 |  | 
AGAUGUAGCGGAAGGAGCGACAAGAGGAUCACCCUUGUCUCCCGUUGUGGGAGUUCCUUAGGUCAGGUAGGUCGCCGUUACGUCA [Omei Arg B SS B v4] |  |  |  |  |  |  | 22.7 | 38.4 | 28.6 | 22.9 | 25
UGUAUGGACUGAAGGAGCGCCUCAAAAUAUCAUGAGGAUCACCCAUGGAAGGCGAAAGCCGGGCAGGUAGGUCGCAGUCCAUACU [ArgBX 3] |  |  |  |  |  |  | 20.2 | 19.1 | 15.6 | 15.6 | 13.4
UAUAUAUAUCACGAACUGUGGUGUAUGUCUCGAGGACCGGUACGGCCGCCACUCGCGCGGCCUCACAUGAGGAUCACCCAUGUUG [XTryp A #6] |  |  |  |  |  |  | 27.9 | 73.7 | 78.5 |  | 
UGUAUGGACUGAAGGAGCGGGUAAAUAACCUGAGGAUCACCCAGGUAAAAGGCGAAAGCCACCCAGGUAGGUCGCAGUCCAUACU |  |  |  |  |  |  | 10.6 | 13.7 | 12.7 |  | 11
UCGGGCAGAGCGGCCGCCACUGUUUGGCGUGCGGAUGACGGAACAUGAGGAUCACCCAUGUUGAUUAGGACCGGGCUUGCGGAGA [qpqullin] |  |  |  |  |  |  | 11.3 | 24.1 | 13.8 | 14.7 | 14.7
CCCAAUUAGAUCUUUGGAAUUUUACUCGAAGGAGCGUCAUAGUAGGCAGGUAGGUCGCGAGACAUGAGGAUCACCCAUGUAGAGA [btbmullin] |  |  |  |  |  |  | 33 | 50.8 | 38.5 | 40.9 | 33
AACGUAUACAGAAGGAGCGUGAAUUAUAUUACUCAUUCUUAUACAUGAGGAUCACCCAUGUCACAGGUAGGUCGCUGUAUUCGUA [JR_ExcArginiB_Sub019] |  |  |  |  |  |  | 81.9 | 91.9 | 111 | 106 | 81.6
GGGUACAUCGCGGCCGCCACUGAUGUAAAUACAUGAGGAUCACCCAUGUCGAUGGAGACAUCGGCCAGGACCGGGUGAUGUACCG |  |  |  |  |  |  | 13.1 | 24.1 | 16.5 | 14 | 11.6
GGAUAGGACAGAAGGAGCGACAUGAGGAUCACCCAUGUCUACUAGGACGAAAGUCCGUCAUGUCAGGUAGGUCGCUGUCCUAUCG [#29 Exclusion - Arginine B] |  |  |  |  |  |  | 68.8 | 103 | 114 | 88.7 | 81.2
AACAUGAGGAUCACCCAUGUUAAGUAUGAAGGAGCGUCGGAAACGACAGGUAGGUCGCAUACUUGGCCUUGUACUUCGUGUGUCU [#02 Exclusion - Arginine A] |  |  |  |  |  |  | 14.2 | 17.9 | 14.4 | 14.3 | 14.7
